# Where two headings read alike, the source gives them in different places.
# How the values were obtained:
# [1] = tested on: HEK293 and TRAMP C2 cell lines; assay type: cell-based, human; details: 0.1-10 μM, both cell lines
# Experimental: The cytotoxicity of the conjugates was determined by measuring the mitochondrial enzyme activity, using a commercial XTT assay kit. All samples contained DMSO at a final concentration <0.05%. Cells were cultured in micro wells at 2-4×10^4 cells/mL and incubated for 24 h or 72 h at 37° C. After the first incubation period of 24 h the cultures were washed and then given a fresh medium containing different concentrations of the tested substances. At the end of the second incubation, XTT reagent was added and the cells were re-incubated for additional 2-4 h. During that time the absorbencies in the wells were measured with a TECAN Infinite M200 ELISA reader at both 480 and 680 nm. […]
# The in vitro activity of 9a was determined on human embryonic kidney 293 (HEK293) cells and human prostate cancer TRAMP C2 cell lines in order to compare the cytotoxicity of 9a relative to the three selected free drugs. […] The cytotoxicity of 9a was determined by measuring the mitochondrial enzyme activity of the different cell lines after incubation with the different substances for 24 h and 72 h. The viability factor (% of surviving cells) of the cell cultures was calculated relative to a control sample incubated with the vehicle only, considered as 100% viability. […]
# FIGS. 19A-19D present the results of the viability assay (% surviving cells) of the cell cultures calculated relative to the control, 100% viability. […]
# [2] = Bio-stability of 9a in murine liver homogenate (LH); assay type: in vitro ADME, mouse
# Experimental: Preparation of the LH and assay: Mice were sacrificed by CO2 inhalation euthanasia. The livers were removed, minced, washed three times in cold PBS buffer and homogenized in Tris-HCl, pH 7.4 buffer (wt/3 vol.) by dozen strokes in a Potter-Elvehjem glass tissue grinder. The tissue homogenate was centrifuged at 4° C., 14000 rpm, 20 min. The supernatant was carefully collected (LH) and used immediately or else stored in liquid nitrogen. The concentration of protein was measured using the BCA protein assay with bovine serum albumin as a standard.
# Assay incubation procedure: Incubations were conducted in an incubator oven set at 37° C. Each incubation tube contained 2 mL homogenate samples (equivalent to 6 mg total protein of mouse LH). The samples were prepared by adding 50 μL of stock solution to the LH at the beginning of the incubation period. Aliquots (100 μL) of the LH mixture were removed after 10, 30, 60, 90, 120, and 180 min. immediately quenched with 2.5 volumes of ethanol, and centrifuged at 14000 rpm for 15 min. The supernatants were collected, filtered and analyzed by LC-MS.
# In order to get a biologically relevant picture of the release sequence of the different drugs, the bio-stability of 9a in murine liver homogenate (LH) was studied. Examination of the degradation rate of 9a, accompanied by cleavage of free drugs, was carried out following the LC-MS trace at different time intervals using premade authentic samples as reference signals.
# [3] = Chemo-stability and drug release of 9a and CLB in buffers at pH 2, 5 and 7.4 (LC-MS); assay type: physicochemical; details: for half-life at 0.04 mg/mL: buffer, read-out: degradation t1/2 (converted)
# Experimental: Stock solutions chemo-stability studies were prepared by dissolving 5 mg of the tested compound in 5000 μl of DMSO.
# Incubation procedure: Aqueous stability was determined at pH 2, 5 and 7.4. Aliquots (100 μl) of stock solution were diluted to a total of 2.5 mL with the desired buffer and then incubated at 37° C. During the incubation period (up to 160 h) 250 μL portions were drawn at different time intervals, filtered and analyzed by LC-MS.
# Peptidyl delivery systems loaded with anticancer drugs are expected to reach their site of action with minimal degradation. The PDS should be stable enough to be absorbed by cancer cells and only then deliver its toxic cargo. Chemo-stability and bio-stability studies may give us a background check for the endurance of our compact peptidyl DDS under the different conditions it is expected to encounter in a potential animal test. To that end, samples of 9a were incubated at pH 2, mimicking stomach conditions, at pH 5 mimicking the microenvironment in tumors, and at physiological pH 7.4, all at 37° C. Aliquots from the stock solutions were extracted at different time intervals and analyzed by LC-MS following the decrease in concentration of 9a (i.e., chemical degradation) and the formation of the dihydroxy derivative 11. In addition, the direct release of the different drugs was also followed based on the increase in the concentration of CLB, AZA and CAMP over time. In this analysis samples of 9a, 11, CLB, AZA and CAMP were used as references. Overall, the HPLC trace presents a very complex mixture of metabolites which could not be exhaustively characterized. Scheme 9 below presented the molecular structure 11.
# [4] = tested on: TRAMP C2 prostate cancer cell lines; assay: XTT growth inhibition assay, TRAMP C2; assay type: cell-based, human; details: compared with corresponding free drugs
# Experimental: (§1) The cytotoxicity of the peptide-drug conjugates was determined by measuring the mitochondrial enzyme activity, using a commercial XTT assay kit. All samples contained DMSO at final concentration <0.05%. Cells were cultured in micro wells at 2-4×10^4 cells/ml and incubated for 24 h or 72 h. After the first incubation period the cultures were washed and then given fresh medium containing different concentrations of the tested substances. At the end of the second incubation, XTT reagent was added and the cells were re-incubated for additional 2-4 h. During that time the absorbencies in the wells were measured with a TECAN Infinite M200 plate reader at both 480 and 680 nm. […]
# (§2) In order to compare the cytotoxic effects of the conjugates relative to the free drugs, the in vitro cytotoxic effect of the drug bioconjugates 1a-e was determined on SSTR2 overexpressed HCT 116 human colorectal carcinoma, H1299 human non-small cell lung carcinoma and TRAMP C2 human prostate cancer cell lines. […]
# (§3) FIGS. 13A-13D present the results of the XTT growth inhibition assay conducted for conjugates 1a-e. […] After the treatment, growth inhibition was measured using the XTT assay: The culture medium was replaced by a new one, and then the XTT reagent was added. The wells were incubated for 2-4 hrs. after which the optical density (OD) was measured at 480 and 680 nm. […]
# [5] = tested on: H1299 human non-small cell lung carcinoma cells; assay: XTT growth inhibition assay, H1299; assay type: cell-based; details: 10 μM, incubation of 72 h
# Experimental: (§4) The cytotoxicity of the peptide-drug conjugates was determined by measuring the mitochondrial enzyme activity, using a commercial XTT assay kit. All samples contained DMSO at final concentration <0.05%. Cells were cultured in micro wells at 2-4×10^4 cells/ml and incubated for 24 h or 72 h. After the first incubation period the cultures were washed and then given fresh medium containing different concentrations of the tested substances. At the end of the second incubation, XTT reagent was added and the cells were re-incubated for additional 2-4 h. During that time the absorbencies in the wells were measured with a TECAN Infinite M200 plate reader at both 480 and 680 nm. The difference between these measurements was used for calculating the % Growth Inhibition (GI) in test wells compared to two controls: cells that were exposed to the medium and solvent, and those that were exposed to a solvent-free medium. All the tests were done in quadruplicates. Each experiment was conducted twice.
# (§5) In order to compare the cytotoxic effects of the conjugates relative to the free drugs, the in vitro cytotoxic effect of the drug bioconjugates 1a-e was determined on SSTR2 overexpressed HCT 116 human colorectal carcinoma, H1299 human non-small cell lung carcinoma and TRAMP C2 human prostate cancer cell lines. The SSTR2 low-expressed HEK-293 (Human Embryonic Kidney 293) cell line was used as a negative control. The study was elaborated over a concentration range of 1-10 μM.
# as §3, with “nm. Percentage of growth inhibition for each compound was calculated by comparison of the treated culture versus a control culture (free of any compound). The result shown for each concentration point represents the mean±standard error calculated from two different experiments.” for “nm.”
# [6] = tested on: HCT 116, H1299, TRAMP C2 and HEK cell lines; assay: XTT growth inhibition assay, statements over all tested cell lines; assay type: cell-based, human
# Experimental: as §4, §5
# FIGS. 13A-13D present the results of the XTT growth inhibition assay conducted for conjugates 1a-e. Growth inhibition effect of drug-conjugates versus free drugs was studied on three cell lines with an over-expression of SSTR2 (FIG. 13A. HCT 116; FIG. 13B. H1299; FIG. 13C. TRAMP C2) against the SSTR2 low expression cell line (FIG. 13D) HEK as negative control. All the cell lines were seeded and allowed to adhere in the wells, after which they were treated with the different compounds in increasing concentrations for 24 and 72 hr. After the treatment, growth inhibition was measured using the XTT assay: The culture medium was replaced by a new one, and then the XTT reagent was added. The wells were incubated for 2-4 hrs. after which the optical density (OD) was measured at 480 and 680 nm. Percentage of growth inhibition for each compound was calculated by comparison of the treated culture versus a control culture (free of any compound). The result shown for each concentration point represents the mean±standard error calculated from two different experiments. In each experiment the compounds were tested in quadruplicates.
# [7] = Bio-stability and drug release of conjugates 1a-e in murine liver homogenate (LH); assay type: in vitro ADME, mouse; details: 37° C.
# Experimental: Preparation of liver homogenate: Mice were sacrificed by CO2 inhalation euthanasia. The livers were removed, minced, washed three times in cold PBS buffer and homogenized in Tris-HCl buffer, pH 7.4 (wt/3 vol.) by dozen strokes in a Potter-Elvehjem glass tissue grinder. The tissue homogenate was centrifuged at 4° C., 14000 rpm, 20 min. The supernatant was carefully collected (liver homogenate) and used immediately or else stored in liquid nitrogen.
# Incubation procedure: Incubations were conducted in a 37° C. incubator with 2 ml homogenate (equivalent to 6 mg total protein of mouse liver homogenate) per incubation tube. The samples were prepared by adding 50 μl of stock solution to the homogenate (homogenate mixture) at the beginning of the incubation period. Aliquots of the homogenate mixture were removed after 10, 30, 60, 90, 120 and 180 min and then immediately quenched with 2.5 volumes of ethanol. The samples were centrifuged at 14000 rpm for 15 min. Supernatants were collected, filtered and analyzed by LC-MS.
# FIGS. 12A-12E present the results of the bio-stability and drug release profiles assays conducted for conjugates 1a-e in LH. […] Stock solutions were prepared by dissolving 5 mg of the measured conjugate in 0.5 ml DMSO. 50 μl of the stock solution were diluted with 2 ml of fresh mouse liver homogenate and then the mixture was incubated at 37° C. Aliquots were collected at 10, 30, 60, 90 and 120 min, mixed with 2.5 volumes of ethanol and centrifuged (14,000 rpm, 15 min). The supernatants were collected, filtered and analyzed by LC-MS
# [8] = Chemo-stability and drug release of conjugates 1a-e in buffers at pH 2, 5 and 7.4 (LC-MS); assay type: physicochemical; details: 37° C.
# Experimental: Incubation procedure: Aqueous stability was determined at pH 2.0 (phosphate buffer), 5.0 (citrate buffer) and 7.4 (PBS buffer). 100 μl of the stock solutions were diluted to 2.5 ml with the desired buffer and then incubated at 37° C. During the incubation period (up to 200 hrs.), aliquots were removed at different time intervals, filtered and analyzed by LC-MS.
# Chemo-stability. The chemo-stability tests of the conjugates were performed at three different pH values; a physiological pH of 7.4, the slightly acidic pH 5, mimicking the microenvironment in tumors, and the more acidic pH 2.
# FIGS. 11A-11J present the results of the chemo-stability and drug release profiles assays, conducted for conjugates 1a-e at pH 2, 5 and 7.4. Degradation of 1a (FIG. 11A), 1b (FIG. 11C), 1c (FIG. 11E), 1d (FIG. 11G), 1e FIG. 11 (FIG. 11I), and the release of the corresponding drugs: CLB (FIG. 11B), CPT (FIG. 11D), AM (FIG. 11F), ABT-751 (FIG. 11H), and COMB (FIG. 11J). Stock solutions were prepared by dissolving 5 mg of the measured conjugate in 0.5 ml DMSO. 100 μl of the stock solution were diluted to 2.5 ml with the relevant buffer and then incubated at 37° C. Along the incubation period, aliquots were taken at the desired time points and analyzed by LC-MS.
# [9] = tested on: HEK-293 (Human Embryonic Kidney 293) cell line; assay: XTT growth inhibition assay, HEK-293 negative control; assay type: cell-based
# Experimental: as §1, §2, §3
smiles,measurement,setting,value
"CC[C@@]1(OC(=O)NCCCC[C@H](NC(=O)CCCc2ccc(N(CCCl)CCCl)cc2)C(=O)NCCCC[C@H](NC(=O)Oc2c(OC)cc([C@@H]3c4[nH]c5ccccc5c4C[C@H]4COC(=O)N43)cc2OC)C(=O)O)C(=O)OCc2c1cc1n(c2=O)Cc2cc3ccccc3nc2-1 [9a, Lys(AZA)-Lys(CBL)(CAMP)]",cytotoxic effect / relative cytotoxic activity,[1],comparable level to the tested free drugs
same,presence of free AZA,[2],could not be detected
same,time to concentration plateau of released CAMP,[2],30 min
same,time to steady state plateau of released CLB,[2],80 min
same,drug release in LH,[2]; 37° C.,quick release of CLB and CAMP
same,half-life at 0.04 mg/mL,"[3]; pH 2, 37° C.",2 h
same,half-life at 0.04 mg/mL,"[3]; pH 5, 37° C.",1.5 h
same,release of the three drugs,[3]; pH 2,none of the three drugs appeared to be released intact or at all
same,appearance of free AZA,[3]; pH 5,not detected
same,maximum concentration of released CAMP,[3]; pH 5,34 nM
same,period in which released CAMP decays completely,[3]; pH 5,≤ 80 h
same,time at which CLB could be first detected,[3]; pH 5,38 h
same,time to maximum concentration of released CAMP,[3]; pH 5,21 h
same,concentration of released CLB,"[3]; pH 5, after 100 h",≤ 0.044 µM
same,free CLB,[3]; pH 7.4,not detected
same,maximum concentration plateau of released AZA,[3]; pH 7.4,12 nM
same,time at which AZA concentration starts to rise above base-line,[3]; pH 7.4,20 h
same,time at which CAMP could be detected,[3]; pH 7.4,75 h
same,time to maximum concentration of released CAMP,[3]; pH 7.4,100 h
same,time to maximum concentration plateau of released AZA,[3]; pH 7.4,40 h
COc1ccc(S(=O)(=O)Nc2cccnc2Nc2ccc(OC(=O)NCCCC(=O)N[C@H](Cc3ccccc3)C(=O)N[C@H]3CSSCCN(CC(N)=O)C(=O)[C@H](Cc4ccccc4)NC(=O)[C@H]([C@@H](C)O)NC(=O)[C@H](CCCCN)NC(=O)[C@@H](Cc4c[nH]c5ccccc45)NC(=O)[C@H](Cc4c[nH]c5ccccc45)NC(=O)[C@H](Cc4ccccc4)NC3=O)cc2)cc1 [conjugate 1d],cytotoxic effect on TRAMP C2,[4],most potent targeted therapeutic effect
same,cytotoxic effect on H1299,[5],most active
same,cytotoxicity throughout the study,"[6]; 1-10 μM, 24 and 72 h",targeted but cell selective cytotoxicity
same,release of free drug in liver homogenate,[7],could hardly be detected
same,degradation of conjugate,"[8]; all tested pH values (pH 2, 5, 7.4)",rapid degradation
same,half-life at 0.4 mg/ml,"[8]; buffer, all tested pH values, read-out: average degradation t1/2 (converted)",8 h
"CC[C@@]1(O)C(=O)OCc2c1cc1n(c2=O)Cc2cc3ccccc3nc2-1 [CPT, Camptothecin]",cytotoxic effect,[9],toxic
same,IC50 values,[6]; tested cell lines including HEK,low μM range

# Source: US11311625B2, “Peptide-based multiple-drug delivery vehicle” (priority 2015, dated 2022)
